Data: US20030224997A1
Positions of bridges follow the written chain, without caps; N, C: chain ends. No end group written: not given here. *: point of attachment. Biotin = O=C1N[C@H]2[C@H](CS[C@H]2CCCCC(=O)*)N1

Experiments:
[1] = biological target: protein on the CEM cell surface that binds L1AD3 (L1AD3 protein receptor, 27-35 kDa) (human); experiment: fluorescence spectroscopy, CEM cells in suspension, avidin-FITC
[2] = biological target: protein on the CEM cell surface that binds L1AD3 (L1AD3 protein receptor, 27-35 kDa) (human)
[3] = biological target: protein on the CEM cell surface that binds L1AD3 (L1AD3 protein receptor, 27-35 kDa) (human); remark: listed apart in the source

Binder | fluorescence increase over cells not incubated with biotinylated peptide [1] | Kd [2] | percent reduction of binding of biotinylated peptide [2] | percent inhibition of binding of biotinylated L1AD3 [3]
Biotin-LKCNKLVPLFYKTC (disulfide 3-14) [biotinylated L1AD3 (btn-…), cyclized] | 48% | 6 µM |  | 
LKCNKLVPLFYKTC (disulfide 3-14) [L1AD3 peptide (…), cyclized] |  |  | 47% | 50%
